The labels stand for the following.
T1: MBP-RAMP2 ECD [L106R]-(GS)5-CLR ECD-H6 fusion protein (human, UniProt O60895 43-143; Q16602 29-144)
T1 chain: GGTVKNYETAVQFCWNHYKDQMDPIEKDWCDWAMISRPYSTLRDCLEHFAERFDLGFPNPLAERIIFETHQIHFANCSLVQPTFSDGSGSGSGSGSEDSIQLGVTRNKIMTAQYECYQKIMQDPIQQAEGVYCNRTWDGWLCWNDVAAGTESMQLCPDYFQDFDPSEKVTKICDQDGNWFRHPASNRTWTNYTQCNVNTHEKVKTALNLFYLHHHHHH

Where no end group is shown, it is not given here.

The Ki is the dissociation constant of the complex between target and ligand, obtained from inhibition or displacement. A low value points to a stronger hold on the target. In general, IC50 refers to the concentration that gives 50% inhibition.

The target in one test is T1, MBP-RAMP2 ECD [L106R]-(GS)5-CLR ECD-H6 …. Kind of test: AlphaLISA competition, Biotin-AM probe.
As for DKDNVAPRSKISPWGY-NH2 [AM(37-52)NH2 [Q50W]], the “fold increase in affinity (against AM(37-52)NH2)” value is about 100 fold.

Another test shares this target. Kind of test: FP competition, FITC-AM W/W probe, RAMP2-CLR ECD.
DKDNVAPRWLIGPWGF-NH2 [AM(37-52)NH2 [S45W, K46L, S48G, Q50W, Y52F]] registered a Ki of 1.25 µM and a pKI of 5.9.
The like results for DKDNVAPRSLISPWGY-NH2 [AM(37-52)NH2 [K46L, Q50W]] were, in that order, 1.66 µM and 5.78.
On the same counts, the results for DKDNVAPRTWISPWGY-NH2 [AM(37-52)NH2[S45T, K46W, Q50W]] are 12.5 µM and 4.9.
On to DKDNVAPRWKISPWGY-NH2 (also called S45W/Q50W double mutant) [AM(37-52)NH2 [S45W, Q50W]], for which the Ki was determined as 0.0813 µM and the pKI is 7.09.
The molecule DKDNVAPRSKISPQGY-NH2 (also called WT (AM(37-52)NH2 scaffold)) [AM(37-52)NH2] showed a Ki of 20.4 µM and a pKI of 4.69.
On the same counts, the results for DKKNVAPRSKISPQGY-NH2 [AM(37-52)NH2 [D39K]] are 6.1 µM and 5.22.
In the case of DKDNVAPRWLISPWGF-NH2 [AM(37-52)NH2 [S45W, K46L, Q50W, Y52F]], the Ki came to 4.07 µM and the pKI is 5.39.
The like results for DKDNVAPRWMISPWGF-NH2 [AM(37-52)NH2 [S45W, K46M, Q50W, Y52F]] were, in that order, 7.76 µM and 5.11.
The like results for DKFNVAPRSLISPWGY-NH2 [AM(37-52)NH2 [D39F, K46L, Q50W]] were, in that order, 1.83 µM and 5.74.
As to DKDNVAPRSLISPWGF-NH2 [AM(37-52)NH2 [K46L, Q50W, Y52F]], the Ki stood at 89.1 µM and the pKI worked out at 4.05.
The like results for DKFNVAPRSLISPWGF-NH2 [AM(37-52)NH2 [D39F, K46L, Q50W, Y52F]] were, in that order, 30.3 µM and 4.55.
The like results for DKDNVAPRSKISPFGY-NH2 [AM(37-52)NH2 [Q50F]] were, in that order, 2.14 µM and 5.67.
In turn, DKDNVAPRTLISPWGY-NH2 [AM(37-52)NH2[S45T, K46L, Q50W]] gave a Ki of 1.57 µM and a pKI of 5.8.
On the same counts, the results for DKDNVAPRSKISPWGY-NH2 [AM(37-52)NH2 [Q50W]] are 0.316 µM and 6.5.
The like results for DKDNVAPRWWISPWGF-NH2 [AM(37-52)NH2 [S45W, K46W, Q50W, Y52F]] were, in that order, 16.6 µM and 4.78.
The like results for FVPTDVGPWSF-NH2 [CGRP(27-37)NH2 [N31D, S34P, K35W, A36S]] were, in that order, 2.45 µM and 5.61.
As for FVPTDTGPWGY-NH2 [CGRP(27-37)NH2 [N31D, V32T, S34P, K35W, A36G, F37Y]], the Ki is 14.5 µM and the pKI worked out at 4.84.
On the same counts, the results for FVPTDVGPWSY-NH2 [CGRP(27-37)NH2 [N31D, S34P, K35W, A36S, F37Y]] are 0.324 µM and 6.49.
Regarding FVPTDTGPWSF-NH2 [CGRP(27-37)NH2 [N31D, V32T, S34P, K35W, A36S]], affinity was put at a Ki of 2.75 µM and the pKI stood at 5.56.

For another test the target is unchanged. Kind of test: AlphaLISA/AlphaScreen competition, RAMP2-CLR ECD. On the technique in general: Bead proximity is the source of the signal in Alpha formats.
For the molecule DKDNVAPRSKISPQGY-NH2 (also called WT (AM(37-52)NH2 scaffold)) [AM(37-52)NH2], the IC50 is 5 to 15 µM.

A further test shares this target. Kind of test: FP competition; KI at RAMP1-CLR ECD over KI at RAMP2-CLR ECD.
In the case of DKDNVAPRSKISPFGY-NH2 [AM(37-52)NH2 [Q50F]], the “Receptor Selectivity (fold)” value was 5 fold.

The values are drawn from patent publication US20200024320A1 (published 2020).
